{"source": "patent US20090143308A1", "experiment_in_all_cases": "cell-based or functional assay", "key": {"[1]": {"biological_target": "S. cerevisiae plasma membrane H+-ATPase (Pma1p) (Saccharomyces cerevisiae) (UniProt P05030)", "sequence (P05030 whole entry)": "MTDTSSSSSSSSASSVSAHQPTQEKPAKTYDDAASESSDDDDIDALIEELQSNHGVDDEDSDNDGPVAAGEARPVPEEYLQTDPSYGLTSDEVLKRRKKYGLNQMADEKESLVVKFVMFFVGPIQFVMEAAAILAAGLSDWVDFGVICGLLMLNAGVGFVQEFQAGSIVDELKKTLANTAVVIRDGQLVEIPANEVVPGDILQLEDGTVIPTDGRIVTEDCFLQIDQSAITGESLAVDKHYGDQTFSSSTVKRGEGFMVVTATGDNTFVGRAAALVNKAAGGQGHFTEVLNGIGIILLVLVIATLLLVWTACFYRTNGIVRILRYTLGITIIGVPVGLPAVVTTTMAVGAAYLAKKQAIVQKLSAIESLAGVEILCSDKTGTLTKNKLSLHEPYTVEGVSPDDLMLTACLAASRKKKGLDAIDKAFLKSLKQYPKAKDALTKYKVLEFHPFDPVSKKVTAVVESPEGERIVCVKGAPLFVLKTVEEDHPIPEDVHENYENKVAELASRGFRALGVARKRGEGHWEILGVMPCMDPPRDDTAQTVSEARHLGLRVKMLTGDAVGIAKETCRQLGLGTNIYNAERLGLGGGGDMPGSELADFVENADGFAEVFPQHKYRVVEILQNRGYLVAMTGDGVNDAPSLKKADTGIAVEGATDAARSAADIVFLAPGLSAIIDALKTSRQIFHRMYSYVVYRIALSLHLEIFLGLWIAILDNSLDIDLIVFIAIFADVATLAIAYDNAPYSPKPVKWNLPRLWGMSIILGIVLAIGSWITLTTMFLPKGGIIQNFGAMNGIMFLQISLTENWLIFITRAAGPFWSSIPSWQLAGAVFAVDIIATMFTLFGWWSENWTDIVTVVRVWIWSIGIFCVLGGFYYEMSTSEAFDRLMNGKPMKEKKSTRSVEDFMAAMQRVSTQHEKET"}, "[2]": {"biological_target": "Candida albicans Cdr1p as expressed in S. cerevisiae AD1002 (CDR1 of plasmid pKEN1002) (Candida albicans) (UniProt P43071)", "sequence (P43071 whole entry)": "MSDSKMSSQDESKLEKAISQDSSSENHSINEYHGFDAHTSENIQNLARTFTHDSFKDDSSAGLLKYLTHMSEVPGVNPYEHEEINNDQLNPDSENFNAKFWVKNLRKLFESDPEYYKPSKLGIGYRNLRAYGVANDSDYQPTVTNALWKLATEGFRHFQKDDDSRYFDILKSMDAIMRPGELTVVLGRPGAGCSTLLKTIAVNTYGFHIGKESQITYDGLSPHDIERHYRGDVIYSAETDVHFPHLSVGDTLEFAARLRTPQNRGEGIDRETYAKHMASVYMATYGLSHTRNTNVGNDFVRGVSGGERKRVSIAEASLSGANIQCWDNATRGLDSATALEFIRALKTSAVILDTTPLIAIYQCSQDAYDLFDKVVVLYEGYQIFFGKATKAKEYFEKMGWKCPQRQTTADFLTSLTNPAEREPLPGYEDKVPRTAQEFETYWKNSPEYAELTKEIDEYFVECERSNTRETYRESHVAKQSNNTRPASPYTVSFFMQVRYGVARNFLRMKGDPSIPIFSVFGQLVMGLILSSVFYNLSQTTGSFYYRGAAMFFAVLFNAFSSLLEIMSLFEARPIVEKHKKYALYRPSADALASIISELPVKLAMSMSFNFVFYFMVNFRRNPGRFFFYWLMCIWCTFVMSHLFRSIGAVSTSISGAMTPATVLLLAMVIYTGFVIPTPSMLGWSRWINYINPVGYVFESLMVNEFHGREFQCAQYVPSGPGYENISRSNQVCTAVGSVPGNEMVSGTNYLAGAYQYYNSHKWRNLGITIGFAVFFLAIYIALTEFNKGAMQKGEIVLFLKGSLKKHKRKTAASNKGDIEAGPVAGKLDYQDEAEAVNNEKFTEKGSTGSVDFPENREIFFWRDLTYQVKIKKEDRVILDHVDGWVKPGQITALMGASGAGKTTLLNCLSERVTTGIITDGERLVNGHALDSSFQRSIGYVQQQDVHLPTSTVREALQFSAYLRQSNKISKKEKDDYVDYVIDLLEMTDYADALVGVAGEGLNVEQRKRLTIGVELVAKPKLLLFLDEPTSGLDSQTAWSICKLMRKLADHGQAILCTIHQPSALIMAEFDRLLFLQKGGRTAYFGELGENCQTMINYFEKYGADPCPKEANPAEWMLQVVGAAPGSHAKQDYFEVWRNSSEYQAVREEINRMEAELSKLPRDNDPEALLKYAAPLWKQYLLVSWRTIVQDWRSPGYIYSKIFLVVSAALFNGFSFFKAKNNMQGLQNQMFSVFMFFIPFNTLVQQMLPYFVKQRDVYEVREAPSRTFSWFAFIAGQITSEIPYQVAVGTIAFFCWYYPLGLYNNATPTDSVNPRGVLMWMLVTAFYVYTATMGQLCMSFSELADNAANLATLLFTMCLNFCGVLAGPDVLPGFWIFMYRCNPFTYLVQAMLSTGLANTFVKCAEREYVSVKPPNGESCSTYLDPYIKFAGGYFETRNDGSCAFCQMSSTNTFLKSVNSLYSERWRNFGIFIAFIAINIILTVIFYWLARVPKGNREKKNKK"}, "[3]": {"biological_target": "Saccharomyces cerevisiae Pdr5p (over-expressed in strain AD124567) (Saccharomyces cerevisiae) (UniProt P33302)", "sequence (P33302 whole entry)": "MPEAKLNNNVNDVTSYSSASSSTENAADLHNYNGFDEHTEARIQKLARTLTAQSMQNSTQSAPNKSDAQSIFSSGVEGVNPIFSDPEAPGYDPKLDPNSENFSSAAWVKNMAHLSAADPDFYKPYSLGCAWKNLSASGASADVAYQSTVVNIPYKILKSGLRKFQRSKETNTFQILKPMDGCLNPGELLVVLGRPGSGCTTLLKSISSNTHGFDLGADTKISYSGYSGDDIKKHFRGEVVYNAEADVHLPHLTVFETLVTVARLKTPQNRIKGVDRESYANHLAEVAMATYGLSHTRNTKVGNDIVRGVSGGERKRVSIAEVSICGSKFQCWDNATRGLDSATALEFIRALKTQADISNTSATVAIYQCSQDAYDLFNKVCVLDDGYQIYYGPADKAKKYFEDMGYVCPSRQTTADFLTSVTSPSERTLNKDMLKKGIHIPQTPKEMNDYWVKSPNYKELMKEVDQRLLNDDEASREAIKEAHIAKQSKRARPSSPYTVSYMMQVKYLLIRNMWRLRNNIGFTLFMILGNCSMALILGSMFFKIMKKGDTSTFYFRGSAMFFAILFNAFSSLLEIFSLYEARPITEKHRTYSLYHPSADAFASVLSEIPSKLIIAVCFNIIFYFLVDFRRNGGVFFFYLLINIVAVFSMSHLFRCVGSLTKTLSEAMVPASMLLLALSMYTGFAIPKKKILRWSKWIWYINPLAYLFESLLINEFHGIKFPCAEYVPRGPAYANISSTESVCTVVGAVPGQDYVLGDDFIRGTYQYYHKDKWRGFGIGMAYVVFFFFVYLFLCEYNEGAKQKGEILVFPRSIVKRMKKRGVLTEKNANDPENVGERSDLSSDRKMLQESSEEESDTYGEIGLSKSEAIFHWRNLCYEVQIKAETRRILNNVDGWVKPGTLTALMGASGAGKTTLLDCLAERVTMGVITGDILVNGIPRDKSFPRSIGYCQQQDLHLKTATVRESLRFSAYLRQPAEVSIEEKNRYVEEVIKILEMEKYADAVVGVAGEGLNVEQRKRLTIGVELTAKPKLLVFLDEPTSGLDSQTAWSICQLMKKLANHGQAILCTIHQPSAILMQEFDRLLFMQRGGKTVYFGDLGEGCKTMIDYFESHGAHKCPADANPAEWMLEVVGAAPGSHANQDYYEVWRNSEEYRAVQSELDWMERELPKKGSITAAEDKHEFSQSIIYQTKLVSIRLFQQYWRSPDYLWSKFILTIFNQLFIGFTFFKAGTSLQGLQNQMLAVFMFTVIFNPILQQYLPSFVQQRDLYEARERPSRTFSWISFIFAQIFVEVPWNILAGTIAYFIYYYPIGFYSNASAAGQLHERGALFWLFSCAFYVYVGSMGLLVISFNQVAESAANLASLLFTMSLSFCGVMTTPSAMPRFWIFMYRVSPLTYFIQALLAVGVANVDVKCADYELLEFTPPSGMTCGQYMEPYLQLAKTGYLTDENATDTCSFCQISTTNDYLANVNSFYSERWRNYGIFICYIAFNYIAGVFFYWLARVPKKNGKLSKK"}}, "data": [{"substance": "KN20 (D-NH2-asparagine-tryptophan-tryptophan-lysine-valine-arginine-arginine-arginine-CONH2 with a single Mtr substituent) (peptide)", "values": [{"measurement": "inhibition of S. cerevisiae plasma membrane H+-ATPase (I50)", "setting": "[1]", "value": 10, "unit": "µM"}, {"measurement": "fold higher inhibitory concentration for Cdr1p ATPase than for Pdr5p ATPase", "setting": "[2]", "value": 2.7, "unit": "fold"}, {"measurement": "inhibition of oligomycin sensitive ATPase activity of AD1002 plasma membranes (I50)", "setting": "[2]", "value": 8, "unit": "µM"}, {"measurement": "inhibition of oligomycin sensitive ATPase activity of plasma membranes from the AD124567 yeast strain overexpressing Pdr5p (I50)", "setting": "[3]", "value": 3, "unit": "µM"}]}]}
